Literature values, collected in article PMC5298935.

How the values were obtained:
[1] = molecular target: IRAK1 p144 peptide UD (Homo sapiens) (UniProt P51617); test: NMR
[2] = molecular target: IRAK1 p173 peptide UD (Homo sapiens) (UniProt P51617); test: NMR
[3] = molecular target: IRAK1 p131 peptide UD (Homo sapiens) (UniProt P51617); test: NMR
[4] = molecular target: IRAK1 p173 peptide 157-180 (Homo sapiens) (UniProt P51617); test: NMR titration
[5] = molecular target: IRAK1 p144 peptide 140-149 (Homo sapiens) (UniProt P51617); test: NMR titration
Chain of IRAK1 p144 peptide 140-149 (Homo sapiens) (P51617 whole entry, looked up, tested part not stated): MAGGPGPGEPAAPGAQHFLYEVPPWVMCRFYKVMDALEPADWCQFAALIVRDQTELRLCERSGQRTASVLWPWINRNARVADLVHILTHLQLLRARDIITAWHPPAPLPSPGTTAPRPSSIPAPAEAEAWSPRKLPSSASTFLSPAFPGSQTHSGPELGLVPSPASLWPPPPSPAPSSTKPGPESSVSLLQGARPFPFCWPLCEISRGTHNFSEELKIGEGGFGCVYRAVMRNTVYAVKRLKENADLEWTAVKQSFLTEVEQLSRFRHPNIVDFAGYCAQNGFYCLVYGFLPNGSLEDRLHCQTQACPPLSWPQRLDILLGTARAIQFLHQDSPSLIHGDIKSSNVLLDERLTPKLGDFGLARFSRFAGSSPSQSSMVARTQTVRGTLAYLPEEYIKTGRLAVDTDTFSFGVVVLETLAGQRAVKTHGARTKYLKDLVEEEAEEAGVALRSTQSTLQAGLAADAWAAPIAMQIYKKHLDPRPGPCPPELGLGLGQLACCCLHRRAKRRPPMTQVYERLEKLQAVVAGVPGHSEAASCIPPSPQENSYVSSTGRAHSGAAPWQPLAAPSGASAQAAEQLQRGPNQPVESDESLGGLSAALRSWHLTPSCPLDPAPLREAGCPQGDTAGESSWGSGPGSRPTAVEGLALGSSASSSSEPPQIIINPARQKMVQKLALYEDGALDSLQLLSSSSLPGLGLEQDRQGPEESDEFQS

Chain of Pin1 WW (Q13526 2-42): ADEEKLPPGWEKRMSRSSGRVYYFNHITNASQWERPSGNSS
Chain of Pin1 WW domain 1-50 (Q13526 1-50): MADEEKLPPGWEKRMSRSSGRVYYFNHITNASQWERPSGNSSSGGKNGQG
Chain of IRAK1 p144 peptide UD (Homo sapiens) (P51617 whole entry, looked up, tested part not stated): as the sequence (P51617 whole entry, looked up, tested part not stated) above
Chain of IRAK1 p131 peptide UD (Homo sapiens) (P51617 whole entry, looked up, tested part not stated): as above
Chain of IRAK1 p173 peptide UD (Homo sapiens) (P51617 whole entry, looked up, tested part not stated): as above
Chain of IRAK1 p173 peptide 157-180 (Homo sapiens) (P51617 157-180): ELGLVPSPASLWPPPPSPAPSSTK

Pin1 WW (from UniProt Q13526)
Kd [1]: 120 µM | Kd [2]: 260 µM | Kd [3]: 220 µM

Pin1 WW domain 1-50 (from UniProt Q13526)
Kd [4]: 260 µM | Kd [5]: 120 µM
